Source: PMC7611026 (Journal of molecular biology, 2008)

Key:
[1] = target: T1, RhlB, individually prepared recombinant (E. coli, UniProt P0A8J8 1-421); test: cross-linking
T1 sequence: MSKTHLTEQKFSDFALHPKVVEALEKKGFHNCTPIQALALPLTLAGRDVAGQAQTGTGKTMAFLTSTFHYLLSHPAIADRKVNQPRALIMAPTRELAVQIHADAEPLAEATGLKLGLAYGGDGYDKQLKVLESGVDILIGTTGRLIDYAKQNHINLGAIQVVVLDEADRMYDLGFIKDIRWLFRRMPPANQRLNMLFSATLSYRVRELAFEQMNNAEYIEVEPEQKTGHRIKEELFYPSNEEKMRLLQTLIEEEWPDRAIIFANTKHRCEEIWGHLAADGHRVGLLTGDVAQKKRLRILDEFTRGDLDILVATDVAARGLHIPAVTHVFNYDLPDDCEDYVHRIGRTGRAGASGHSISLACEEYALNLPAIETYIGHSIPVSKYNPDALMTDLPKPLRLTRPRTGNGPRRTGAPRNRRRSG

[2] = target: RNase E, genomically encoded, C-terminally FLAG-tagged (rne-FLAG, strain TM522) (E. coli K12, UniProt P21513 1-1061); test: co-IP
[3] = target: RNase E(1–762), hexahistidine-tagged, coexpressed with RhlB (E. coli) (UniProt P21513); test: pull-down + SEC
Chain of RNase E(1–762), hexahistidine-tagged, coexpressed with RhlB (E. coli) (P21513 1-762): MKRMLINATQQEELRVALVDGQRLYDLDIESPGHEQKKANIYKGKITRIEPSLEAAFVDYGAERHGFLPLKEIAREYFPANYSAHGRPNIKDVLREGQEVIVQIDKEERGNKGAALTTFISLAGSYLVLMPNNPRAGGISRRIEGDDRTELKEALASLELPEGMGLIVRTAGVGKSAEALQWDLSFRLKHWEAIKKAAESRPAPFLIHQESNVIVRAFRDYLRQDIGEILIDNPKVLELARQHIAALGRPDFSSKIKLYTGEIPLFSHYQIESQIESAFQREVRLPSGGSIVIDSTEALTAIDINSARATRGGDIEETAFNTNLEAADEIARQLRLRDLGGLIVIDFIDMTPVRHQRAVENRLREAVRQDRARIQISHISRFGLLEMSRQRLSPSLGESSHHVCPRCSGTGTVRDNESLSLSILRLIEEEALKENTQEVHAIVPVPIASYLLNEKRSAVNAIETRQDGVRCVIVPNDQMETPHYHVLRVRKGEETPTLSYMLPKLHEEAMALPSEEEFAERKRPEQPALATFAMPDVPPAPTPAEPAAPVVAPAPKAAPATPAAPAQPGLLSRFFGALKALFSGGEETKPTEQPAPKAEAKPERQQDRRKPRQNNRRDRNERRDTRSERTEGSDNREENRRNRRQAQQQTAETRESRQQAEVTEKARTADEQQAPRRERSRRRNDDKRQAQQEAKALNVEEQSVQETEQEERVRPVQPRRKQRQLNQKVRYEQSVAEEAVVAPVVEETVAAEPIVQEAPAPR

Chain of RNase E, genomically encoded, C-terminally FLAG-tagged (rne-FLAG, strain TM522) (P21513 whole entry): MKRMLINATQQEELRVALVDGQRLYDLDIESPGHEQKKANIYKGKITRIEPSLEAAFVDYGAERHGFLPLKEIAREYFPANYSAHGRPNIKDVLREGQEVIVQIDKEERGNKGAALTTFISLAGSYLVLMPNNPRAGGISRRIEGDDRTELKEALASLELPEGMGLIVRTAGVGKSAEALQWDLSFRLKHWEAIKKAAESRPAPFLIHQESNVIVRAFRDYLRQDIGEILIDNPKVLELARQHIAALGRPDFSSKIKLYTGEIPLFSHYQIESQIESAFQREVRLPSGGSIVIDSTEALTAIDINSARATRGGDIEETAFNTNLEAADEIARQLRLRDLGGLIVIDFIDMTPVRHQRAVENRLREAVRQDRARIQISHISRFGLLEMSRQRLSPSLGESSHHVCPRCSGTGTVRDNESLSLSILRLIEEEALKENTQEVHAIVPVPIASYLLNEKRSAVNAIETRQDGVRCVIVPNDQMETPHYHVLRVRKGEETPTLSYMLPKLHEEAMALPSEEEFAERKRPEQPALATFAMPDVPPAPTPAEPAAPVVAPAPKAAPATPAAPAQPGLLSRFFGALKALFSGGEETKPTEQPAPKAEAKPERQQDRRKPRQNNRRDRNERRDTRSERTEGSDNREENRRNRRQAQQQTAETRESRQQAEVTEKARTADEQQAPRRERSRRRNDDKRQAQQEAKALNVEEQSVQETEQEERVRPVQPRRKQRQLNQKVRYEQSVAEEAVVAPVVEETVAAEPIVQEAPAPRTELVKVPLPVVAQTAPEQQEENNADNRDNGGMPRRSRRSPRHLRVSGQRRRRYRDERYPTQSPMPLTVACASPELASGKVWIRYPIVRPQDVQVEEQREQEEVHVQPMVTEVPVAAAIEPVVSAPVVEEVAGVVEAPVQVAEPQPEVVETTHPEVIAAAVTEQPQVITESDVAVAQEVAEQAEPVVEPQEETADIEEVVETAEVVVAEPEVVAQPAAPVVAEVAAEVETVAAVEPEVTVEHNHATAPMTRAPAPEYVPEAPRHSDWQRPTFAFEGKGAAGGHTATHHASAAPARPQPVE

B1: RNase E(628–843) (domain or fragment)
chain: ERTEGSDNREENRRNRRQAQQQTAETRESRQQAEVTEKARTADEQQAPRRERSRRRNDDKRQAQQEAKALNVEEQSVQETEQEERVRPVQPRRKQRQLNQKVRYEQSVAEEAVVAPVVEETVAAEPIVQEAPAPRTELVKVPLPVVAQTAPEQQEENNADNRDNGGMPRRSRRSPRHLRVSGQRRRRYRDERYPTQSPMPLTVACASPELASGKVW
B1: binds [1].

B2: PNPase, endogenous, in the cell-extracted FLAG-tagged degradosome (enzyme)
chain: MLNPIVRKFQYGQHTVTLETGMMARQATAAVMVSMDDTAVFVTVVGQKKAKPGQDFFPLTVNYQERTYAAGRIPGSFFRREGRPSEGETLIARLIDRPIRPLFPEGFVNEVQVIATVVSVNPQVNPDIVAMIGASAALSLSGIPFNGPIGAARVGYINDQYVLNPTQDELKESKLDLVVAGTEAAVLMVESEAQLLSEDQMLGAVVFGHEQQQVVIQNINELVKEAGKPRWDWQPEPVNEALNARVAALAEARLSDAYRITDKQERYAQVDVIKSETIATLLAEDETLDENELGEILHAIEKNVVRSRVLAGEPRIDGREKDMIRGLDVRTGVLPRTHGSALFTRGETQALVTATLGTARDAQVLDELMGERTDTFLFHYNFPPYSVGETGMVGSPKRREIGHGRLAKRGVLAVMPDMDKFPYTVRVVSEITESNGSSSMASVCGASLALMDAGVPIKAAVAGIAMGLVKEGDNYVVLSDILGDEDHLGDMDFKVAGSRDGISALQMDIKIEGITKEIMQVALNQAKGARLHILGVMEQAINAPRGDISEFAPRIHTIKINPDKIKDVIGKGGSVIRALTEETGTTIEIEDDGTVKIAATDGEKAKHAIRRIEEITAEIEVGRVYTGKVTRIVDFGAFVAIGGGKEGLVHISQIADKRVEKVTDYLQMGQEVPVKVLEVDRQGRIRLSIKEATEQSQPAAAPEAPAAEQGE
In the case of B2, the “PNPase component in aceE/aceF-null cells relative to wild-type control cells” value [2] is reported as ~3 fold and the “stoichiometry N” value [2] is reported as ~2 PNPase monomers per RNase E monomer.

B3: RNA helicase B (RhlB), recombinant, coexpressed with RNase E from pRSF_rnerhlB (enzyme)
chain: MSKTHLTEQKFSDFALHPKVVEALEKKGFHNCTPIQALALPLTLAGRDVAGQAQTGTGKTMAFLTSTFHYLLSHPAIADRKVNQPRALIMAPTRELAVQIHADAEPLAEATGLKLGLAYGGDGYDKQLKVLESGVDILIGTTGRLIDYAKQNHINLGAIQVVVLDEADRMYDLGFIKDIRWLFRRMPPANQRLNMLFSATLSYRVRELAFEQMNNAEYIEVEPEQKTGHRIKEELFYPSNEEKMRLLQTLIEEEWPDRAIIFANTKHRCEEIWGHLAADGHRVGLLTGDVAQKKRLRILDEFTRGDLDILVATDVAARGLHIPAVTHVFNYDLPDDCEDYVHRIGRTGRAGASGHSISLACEEYALNLPAIETYIGHSIPVSKYNPDALMTDLPKPLRLTRPRTGNGPRRTGAPRNRRRSG
For B3, the stoichiometry N (RhlB protomer per RNase E protomer) [3] was 1.
